Laboratory results as given in article PMC6648591 (ACS Omega, 2019).
Non-standard residues stand in square brackets, D forms with d. No end group written: not given here. pGlu = O=C1CC[C@@H](C(=O)O)N1

Key:
[1] = Zymogram of native PAGE (lipase activity on olive oil plate); type: biochemical; details: native PAGE gel placed on agarose plate: 50 mM HEPES (pH 7), 0.625% polyvinyl alcohol, 1.9% (v/v) olive oil, 0.05% brilliant green; Figure 8C
Description: The compositions for native PAGE were as follows. Resolving gel: 12% acrylamide-bis-acrylamide; 0.4 M Tris (pH 8.8), 0.1% APS, 0.04% TEMED. Stacking gel: 5.1% acrylamide-bis-acrylamide; 0.25 M Tris (pH 6.8), 0.1% APS, 0.1% TEMED. Loading dye: 0.06 M Tris (pH 6.8), 0.01% bromophenol blue, 10% glycerol. Running buffer: 3 g/L Tris base, 14.4 g/L glycine. Gel (B) is stained with brilliant blue. Zymogram: After electrophoresis, the native PAGE was placed on an agarose/brilliant blue plate (4% Litex HSB agarose protein grade, 50 mM HEPES (pH 7), 0.625% polyvinyl alcohol, 1.9% (v/v) olive oil, and 0.05% brilliant green (Sigma)).

[2] = target: T1, mature Rhizomucor miehei lipase (Rhizomucor miehei, UniProt P19515 95-363); test: crystal structure; wild-type ProRmL sample, 10 mg/mL; 30% PEG8K, 0.1 M Na-cacodylate pH 6.5, 0.2 M ammonium sulfate; 293 K; molecular replacement with 3TGL; details: both partners purified
T1 sequence (looked up): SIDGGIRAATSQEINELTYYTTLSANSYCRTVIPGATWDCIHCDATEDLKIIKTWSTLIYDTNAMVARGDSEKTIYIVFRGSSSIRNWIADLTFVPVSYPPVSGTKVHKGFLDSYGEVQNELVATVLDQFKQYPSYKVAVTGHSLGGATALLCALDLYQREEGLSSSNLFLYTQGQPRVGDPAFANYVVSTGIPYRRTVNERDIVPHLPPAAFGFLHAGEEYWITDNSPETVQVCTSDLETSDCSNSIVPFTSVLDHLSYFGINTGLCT

[3] = target: T2, mature RmL (Rhizomucor miehei lipase) (Rhizomucor miehei, UniProt P19515); test: GLAD lipase assay: inhibition of mature RmL by propeptide; type: biochemical; details: isolated propeptide; RmL–propeptide molar ratio 1:64, 15 min incubation, 0.2 M HEPES, 1 mM CaCl2, 10 ppm Triton X-100, pH 8.5; substrate olive oil/4-methylumbelliferyl oleate on cellulose, detergent model B; room temperature; fluorescence 365/445 nm; Figure 4a
T2 construct: mature RmL; 95–363; 29,537.7; 29,538.2; made in house; host or cells: Aspergillus oryzae
T2 sequence (P19515 whole entry, looked up): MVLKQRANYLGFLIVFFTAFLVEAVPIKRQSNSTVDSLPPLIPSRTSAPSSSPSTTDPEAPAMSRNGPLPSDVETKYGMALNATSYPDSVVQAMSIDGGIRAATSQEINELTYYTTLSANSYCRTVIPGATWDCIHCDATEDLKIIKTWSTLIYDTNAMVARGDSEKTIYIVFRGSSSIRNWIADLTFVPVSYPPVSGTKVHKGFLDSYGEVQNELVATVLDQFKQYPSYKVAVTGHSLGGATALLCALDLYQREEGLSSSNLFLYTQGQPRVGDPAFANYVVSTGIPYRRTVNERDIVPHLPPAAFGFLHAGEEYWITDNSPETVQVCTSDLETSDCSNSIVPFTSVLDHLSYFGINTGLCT
Method: Inhibition of hydrolytic activity was determined by using the industrially relevant GLAD assay, measuring the release of 4-methylumbelliferone (4-MU) by purified mature RmL incubated with and without a propeptide (RmL–propeptide incubated at a molar ratio of 1:64) for 15 min in 0.2 M HEPES, 1 mM CaCl2, and 10 ppm Triton X-100 (adjusted to pH 8.5). As a substrate, we used cellulose cotton linters, Avicel PH-101 (Sigma-Aldrich, 11365), uniformly coated with a 4.5:1 mixture of olive oil (Sigma-Aldrich, O-1514) and 4-methylumbelliferyl oleate (oleic acid 4-methylumbelliferyl ester (Sigma-Aldrich, 75164): 4 mg/mL in n-hexane (Sigma-Aldrich, 15671)). The coated cellulose fibers were suspended in 0.2 M HEPES, 3 mM CaCl2, 0.5 mM MgCl2, and 10 ppm Triton X-100 mixed with 3.3 g/L detergent solution using detergent model B (model B composition: 1% (w/w) NaOH, 7.2% (w/w) LAS, 3% (w/w) SLES, 5.5% (w/w) soy and coco fatty acids, 6.6% (w/w) AEO, 3.33% (w/w) triethanol amine, 2% (w/w) Na-citrate, 0.5% (w/w) DTMPA, 6% (w/w) MPG, 3% EtOH, 1.7% (w/w) glycerol, 1% (w/w) sodium formate, 0.1% (w/w) PCA; adjusted to pH 8.5) and RmL −/+ propeptide. The enzyme activity at room temperature was followed by measuring the fluorescence (kinetic mode) every 30 s at an excitation wavelength of 365 nm and emission wavelength of 445 nm from 1 to 6 min. […]

[4] = target: T1, mature Rhizomucor miehei lipase; test: fluorescence polarisation; 0.9 uM A488-labelled peptide mixed with mature RmL at 0.0002-10 uM, in duplicate; 50 mM HEPES pH 7.5, 100 mM NaCl, 1 mM CaCl2; 30 min at room temperature; Langmuir 1:1 fit; details: both partners purified
Rhizomucor miehei lipase = details: activity-related mutation in propeptide; cited from earlier work
Description: The buried surface area between the propeptide and the mature enzyme is ∼1771.2 Å^2 (analyzed using PISA,[23] corresponding to a strong protein–protein interaction).[24] The most significant interactions between the propeptide and mature enzyme from the PISA analysis are given in Table S1 (Supporting Information). One of these interactions involves Leu81, which is one of the activity-related mutations identified in ref ([17]) and is a part of the hydrophobic cluster at the ...

B1: mature RmL: the mature wild-type enzyme without propeptide, residues 95–363 (protein)
chain: T1 sequence (looked up)
For B1, which “lipase activity in zymogram at the band corresponding to mature RmL” value [1] is on record?
The value was “much stronger in mature RmL than in wild-type ProRmL”.

B2: Rhizomucor miehei lipase propeptide (cleaved propeptide) (domain or fragment, UniProt P19515 30-94, looked up)
chain: [pGlu]SNSTVDSLPPLIPSRTSAPSSSPSTTDPEAPAMSRNGPLPSDVETKYGMALNATSYPDSVVQAM
modifications: also: N-glycosylation (GlcNAc after EndoH), site not given here, hexose at O-glycosylation site, site not given here
Does B2 bind [2]?
Result: binds

B3: propeptide: Cleaved propeptide, separated from the mature enzyme, residues 30–94 (protein)
chain: [pGlu]SNSTVDSLPPLIPSRTSAPSSSPSTTDPEAPAMSRNGPLPSDVETKYGMALNATSYPDSVVQAM
modifications: also: N-glycosylation (GlcNAc after EndoH), site not given here, hexose at O-glycosylation site, site not given here
With B3 as the molecule, how does the “inhibition of lipase activity” value [3] read?
The value was “clear inhibition of activity”.

Which Kd [4] does the source give for SDVETKYGMALNATSYC(A488) [propeptide fragment SDVETKYGMALNATSYC-A488] here?
Its Kd is 200 nM.

B4: L81V: activity-related propeptide mutation L81V of R. miehei lipase identified in ref 17 (protein, UniProt P19515 25-363, looked up, variant L81V)
pro-form: VPIKRQSNSTVDSLPPLIPSRTSAPSSSPSTTDPEAPAMSRNGPLPSDVETKYGMAVNATSYPDSVVQAMSIDGGIRAATSQEINELTYYTTLSANSYCRTVIPGATWDCIHCDATEDLKIIKTWSTLIYDTNAMVARGDSEKTIYIVFRGSSSIRNWIADLTFVPVSYPPVSGTKVHKGFLDSYGEVQNELVATVLDQFKQYPSYKVAVTGHSLGGATALLCALDLYQREEGLSSSNLFLYTQGQPRVGDPAFANYVVSTGIPYRRTVNERDIVPHLPPAAFGFLHAGEEYWITDNSPETVQVCTSDLETSDCSNSIVPFTSVLDHLSYFGINTGLCT
modifications: pro-form
For B4, which “activity of the mutant” value (Rhizomucor miehei lipase) is on record?
The value was “increased activity”.
